Assay results from US11203773B2, “Designer ribosomes and methods of use thereof for incorporating non-standard amino acids into polypeptides” (Yale University, priority 2016, dated 2021).

Legend:
[1] = substrate: CSCC[C@H](N)C(=O)O; test: purified protein, by the assay type; settings: MetRS
[2] = substrate: N[C@@H](Cc1ccccc1)C(=O)O; test: purified protein, by the assay type; settings: other: adenylation, PheRS; pH 7.0; 25.0 °C
Description: Adenylation of α- and β-Amino Acids Catalyzed by E. coli PheRS, GlyRS, MetRS, and GluRS. […] Briefly, assay mixtures (50 μL) assembled at 25° C. contained the requisite α- or β^3-amino acid substrate (between 5 μM and 5 mM) in 100 mM HEPES (pH 7.0) containing 100 mM KCl, 15 mM MgCl2, 2 mM ATP, 0.5 mM NaPPi, and 50 μCi [^32P]-NaPPi). Reactions were initiated upon addition of enzyme (10 nM MetRS, 10 nM PheRS, or 50 nM GlyRS; 100 nM GluRS for reactions with α-Glu or 1.13 μM GluRS for reactions with β^3-Glu), incubated for various times (10 sec to 10 min), and halted by adding a 5 μL reaction aliquot to 100 μL quenching solution (10% charcoal, 0.5% HCl). 50 μL of 200 mM NaPPi in 1.5 N HCl was then added to each quenched reaction to decrease nonspecific binding of pyrophosphate to the charcoal. Each quenched reaction was then filtered through Whatman filter paper (number 3), previously washed with washing solution (200 mM NaPPi in 1 N HCl) using a 96-well BIO-DOT® apparatus (BioRad). Each well of the apparatus was then washed four times with 200 μL aliquots of washing solution (by pipetting washing solution up and down at least 10 times per wash) to minimize nonspecific binding of pyrophosphate to charcoal. Each experimental well was paired with an analogous control well (no-enzyme control) that lacked enzyme; a single membrane contained time points for both α- and β^3-amino acid substrates and all no-enzyme controls. The membrane was allowed to dry and was protected with a sheet of Microseal B adhesive seals (Biorad) prior to exposure to a BAS Storage Phosphor screen. Screens were imaged on a Typhoon 9500FLA biomolecule imager and the signal intensity of each dot was quantified using ImageJ to determine the relative amount of [^32P]-ATP formed as a function of time (Ctime). Each raw value were corrected by subtracting the intensity of the dot corresponding to the appropriate no-enzyme control (Cblank) and the resulting corrected values of Ccorr (representing the relative amounts of ^32P-ATP formed) were plotted as a function of time to determine values of relative ^32P-ATP formed per minute. Those values were divided by the concentration of enzyme used, and the data was plotted as relative specific activity (^32P-ATP formed min^−1×μM^−1 enzyme) and fitted using Prism by performing nonlinear regression using the least squares method and Equation 1 to obtain RSA (relative specific activity) and KM values (Equation 1 and Table 2).
In Equation 1, v is the apparent relative specific activity (relative ^32P-ATP formed per minute) obtained at each substrate concentration divided by the enzyme concentration, RSA is the relative specific activity, S is the concentration of substrate, and KM is the Michaelis-Menten constant.

[3] = substrate: N[C@@H](Cc1ccccc1)C(=O)O; test: Aminoacylation of 32P-tRNA with α- and β3-amino acids; type: biochemical, E. coli; settings: other: aminoacylation, PheRS
[4] = substrate: N[C@@H](Cc1ccc(O)cc1)C(=O)O; test: as above; type: biochemical, E. coli; settings: other: aminoacylation, TyrRS
[5] = substrate: N[C@@H](Cc1ccc(O)cc1)C(=O)O; test: Adenylation of α- and β-Tyr, coupled MESG/PNP pyrophosphate release assay; type: biochemical, E. coli; settings: other: adenylation, TyrRS
Description: ii. Adenylation of α- and β-Tyr catalyzed by E. coli TyrRS. These reactions were monitored spectrophotometrically in a coupled assay using inorganic pyrophosphatase, 2-amino-6-mercapto-7-methylpurine ribonucleoside (MESG), and purine nucleoside phosphorylase (PNP) to monitor the rate of pyrophosphate release, according to the manufacturer's instructions (Enzcheck Pyrophosphate assay kit, Thermo Fisher Scientific). The assay measures the increase in absorbance at 360 nm due to MESG phosphorolysis, and two molecules of MESG are consumed per pyrophosphate generated. This direct assay could be employed for TyrRS because the rate of ATP hydrolysis (in the absence of amino acid substrate) was insignificant, which was not the case for the other synthetases which therefore required the more laborious pyrophosphate exchange assay described above. […] For TyrRS, kcat is the turnover number (units of reciprocal time) since the change in absorbance can be directly correlated to concentration of pyrophosphate formed.

B1: E. coli MetRS (Escherichia coli K-12) (protein)
chain: MTQVAKKILVTCALPYANGSIHLGHMLEHIQADVWVRYQRMRGHEVNFICADDAHGTPIMLKAQQLGITPEQMIGEMSQEHQTDFAGFNISYDNYHSTHSEENRQLSELIYSRLKENGFIKNRTISQLYDPEKGMFLPDRFVKGTCPKCKSPDQYGDNCEVCGATYSPTELIEPKSVVSGATPVMRDSEHFFFDLPSFSEMLQAWTRSGALQEQVANKMQEWFESGLQQWDISRDAPYFGFEIPNAPGKYFYVWLDAPIGYMGSFKNLCDKRGDSVSFDEYWKKDSTAELYHFIGKDIVYFHSLFWPAMLEGSNFRKPSNLFVHGYVTVNGAKMSKSRGTFIKASTWLNHFDADSLRYYYTAKLSSRIDDIDLNLEDFVQRVNADIVNKVVNLASRNAGFINKRFDGVLASELADPQLYKTFTDAAEVIGEAWESREFGKAVREIMALADLANRYVDEQAPWVVAKQEGRDADLQAICSMGINLFRVLMTYLKPVLPKLTERAEAFLNTELTWDGIQQPLLGHKVNPFKALYNRIDMRQVEALVEASKEEVKAAAAPVTGPLADDPIQETITFDDFAKVDLRVALIENAEFVEGSDKLLRLTLDLGGEKRNVFSGIRSAYPDPQALIGRHTIMVANLAPRKMRFGISEGMVMAAGPGGKDIFLLSPDAGAKPGHQVK
Question: What does the source list for B1?
Answer: Km ([1]; other: adenylation, pH 7.0, 25.0 °C): 23.4 ± 8.0 µM; Km ([1]; other: aminoacylation): 243.4 ± 55.7 µM; kcat ([1]; other: aminoacylation): 0.0233 s⁻¹; kcat/Km ([1]; other: aminoacylation): 100 M⁻¹ s⁻¹

B2: E. coli PheRS (Escherichia coli K-12) (protein)
chain: MSHLAELVASAKAAISQASDVAALDNVRVEYLGKKGHLTLQMTTLRELPPEERPAAGAVINEAKEQVQQALNARKAELESAALNARLAAETIDVSLPGRRIENGGLHPVTRTIDRIESFFGELGFTVATGPEIEDDYHNFDALNIPGHHPARADHDTFWFDTTRLLRTQTSGVQIRTMKAQQPPIRIIAPGRVYRNDYDQTHTPMFHQMEGLIVDTNISFTNLKGTLHDFLRNFFEEDLQIRFRPSYFPFTEPSAEVDVMGKNGKWLEVLGCGMVHPNVLRNVGIDPEVYSGFAFGMGMERLTMLRYGVTDLRSFFENDLRFLKQFK
notes: made in house; host or cells: E. coli BL21(DE3)
Question: How did the Km [2] turn out when B2 was run?
Answer: The Km was 52.8 ± 25.8 µM.

Question: And the Km [3]?
Answer: The Km was 200.4 ± 78.8 µM.

B3: E. coli TyrRS (Escherichia coli K-12) (protein)
chain: MASSNLIKQLQERGLVAQVTDEEALAERLAQGPIALYCGFDPTADSLHLGHLVPLLCLKRFQQAGHKPVALVGGATGLIGDPSFKAAERKLNTEETVQEWVDKIRKQVAPFLDFDCGENSAIAANNYDWFGNMNVLTFLRDIGKHFSVNQMINKEAVKQRLNREDQGISFTEFSYNLLQGYDFACLNKQYGVVLQIGGSDQWGNITSGIDLTRRLHQNQVFGLTVPLITKADGTKFGKTEGGAVWLDPKKTSPYKFYQFWINTADADVYRFLKFFTFMSIEEINALEEEDKNSGKAPRAQYVLAEQVTRLVHGEEGLQAAKRITECLFSGSLSALSEADFEQLAQDGVPMVEMEKGADLMQALVDSELQPSRGQARKTIASNAITINGEKQSDPEYFFKEEDRLFGRFTLLRRGKKNYCLICWK
notes: as for B2
Question: With B3 as the protein, how does the Km [4] read?
Answer: The Km was 12.4 ± 4.8 µM.

Question: What about the kcat [4] of the same protein?
Answer: Its kcat is 1.18 ± 0.128 s⁻¹.

Question: What about the kcat/Km [4] of the same protein?
Answer: Its kcat/Km is 95000 ± 38300 M⁻¹ s⁻¹.

Question: And the Km [5]?
Answer: The Km was 21.4 ± 6.9 µM.

Question: What about the kcat [5] of the same protein?
Answer: Its kcat is 0.0203 ± 0.00183 s⁻¹.

Question: What about the kcat/Km [5] of the same protein?
Answer: Its kcat/Km is 1000 ± 333 M⁻¹ s⁻¹.
